Test in all cases: ELISA
A general note: ELISA stands for enzyme-linked immunosorbent assay.

For test [1], the target named is T1, human EphB3 extracellular region-SEAP-His protein (human, UniProt P54753 34-559).
T1 construct: extracellular domain; also called hEphB3-SEAP-His
T1 sequence (looked up): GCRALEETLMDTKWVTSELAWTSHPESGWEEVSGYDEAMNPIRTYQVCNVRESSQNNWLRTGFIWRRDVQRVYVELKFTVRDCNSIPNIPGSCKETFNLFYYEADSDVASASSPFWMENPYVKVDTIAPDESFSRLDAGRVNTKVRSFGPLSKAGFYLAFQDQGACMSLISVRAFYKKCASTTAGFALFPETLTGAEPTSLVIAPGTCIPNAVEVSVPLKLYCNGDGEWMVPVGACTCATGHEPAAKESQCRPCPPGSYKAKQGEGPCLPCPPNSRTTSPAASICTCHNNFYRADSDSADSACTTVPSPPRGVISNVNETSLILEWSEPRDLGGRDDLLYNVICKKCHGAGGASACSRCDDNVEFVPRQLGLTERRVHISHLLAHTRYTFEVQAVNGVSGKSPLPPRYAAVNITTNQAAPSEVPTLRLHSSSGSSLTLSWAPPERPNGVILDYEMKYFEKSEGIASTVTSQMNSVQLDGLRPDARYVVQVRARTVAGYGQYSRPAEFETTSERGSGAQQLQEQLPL

Test [2] has as its target T2, human EphB2 extracellular region-SEAP-His protein (human, UniProt P29323 19-543).
T2 construct: extracellular domain; also called hEphB2-SEAP-His
T2 sequence (looked up): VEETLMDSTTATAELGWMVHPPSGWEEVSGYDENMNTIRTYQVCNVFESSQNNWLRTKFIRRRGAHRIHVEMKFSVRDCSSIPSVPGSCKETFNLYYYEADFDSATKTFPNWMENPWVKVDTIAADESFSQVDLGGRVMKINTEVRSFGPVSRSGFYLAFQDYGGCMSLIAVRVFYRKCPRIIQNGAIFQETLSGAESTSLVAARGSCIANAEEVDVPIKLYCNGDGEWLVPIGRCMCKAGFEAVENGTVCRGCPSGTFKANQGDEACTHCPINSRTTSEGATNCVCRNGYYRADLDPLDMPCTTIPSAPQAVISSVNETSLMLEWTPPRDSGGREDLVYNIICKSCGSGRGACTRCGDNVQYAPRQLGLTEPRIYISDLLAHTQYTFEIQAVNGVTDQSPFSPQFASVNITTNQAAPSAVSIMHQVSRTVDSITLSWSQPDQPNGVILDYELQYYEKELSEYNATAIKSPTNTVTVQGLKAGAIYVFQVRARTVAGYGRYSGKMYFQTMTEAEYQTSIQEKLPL

For test [3], the target named is T3, human EphA1 extracellular region-SEAP-His protein (human, UniProt P21709 26-547).
T3 construct: extracellular domain; also called hEphA1-SEAP-His
T3 sequence (looked up): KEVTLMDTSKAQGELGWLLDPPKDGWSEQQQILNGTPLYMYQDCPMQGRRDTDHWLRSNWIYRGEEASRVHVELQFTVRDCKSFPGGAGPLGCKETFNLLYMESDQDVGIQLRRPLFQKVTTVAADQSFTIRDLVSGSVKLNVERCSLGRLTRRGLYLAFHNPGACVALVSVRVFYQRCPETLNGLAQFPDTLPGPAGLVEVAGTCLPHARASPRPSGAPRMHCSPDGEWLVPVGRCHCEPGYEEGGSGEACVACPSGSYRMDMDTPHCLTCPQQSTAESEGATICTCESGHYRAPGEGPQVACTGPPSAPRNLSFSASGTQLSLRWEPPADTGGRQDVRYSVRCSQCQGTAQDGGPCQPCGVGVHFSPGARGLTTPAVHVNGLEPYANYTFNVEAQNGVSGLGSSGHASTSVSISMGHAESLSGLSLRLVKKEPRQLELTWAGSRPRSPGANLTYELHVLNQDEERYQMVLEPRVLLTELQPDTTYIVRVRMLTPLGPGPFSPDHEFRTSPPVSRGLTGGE

Test [4] has as its target T4, human EphA4 extracellular region-SEAP-His protein (human, UniProt P54764 20-547).
T4 construct: also called hEphA4-SEAP-His

In test [5] the target is T5, human EphA6 extracellular region-SEAP-His protein (human, UniProt Q9UF33 23-550).
T5 construct: extracellular domain; also called hEphA6-SEAP-His
T5 sequence (looked up): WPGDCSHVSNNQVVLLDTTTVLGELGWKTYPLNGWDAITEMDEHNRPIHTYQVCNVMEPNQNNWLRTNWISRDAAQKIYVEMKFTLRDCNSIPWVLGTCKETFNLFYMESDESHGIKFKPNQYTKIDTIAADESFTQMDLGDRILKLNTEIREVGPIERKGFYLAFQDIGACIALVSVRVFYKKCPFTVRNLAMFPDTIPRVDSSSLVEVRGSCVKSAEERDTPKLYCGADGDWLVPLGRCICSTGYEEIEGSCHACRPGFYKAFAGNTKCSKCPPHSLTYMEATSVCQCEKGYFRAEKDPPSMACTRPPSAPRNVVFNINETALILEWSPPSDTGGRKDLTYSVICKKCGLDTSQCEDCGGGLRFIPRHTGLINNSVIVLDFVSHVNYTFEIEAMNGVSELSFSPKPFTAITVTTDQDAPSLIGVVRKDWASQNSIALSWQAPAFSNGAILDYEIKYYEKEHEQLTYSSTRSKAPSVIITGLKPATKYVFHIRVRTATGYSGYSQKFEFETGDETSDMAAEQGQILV

A further test has as its target SEAP-His (UniProt P05187 23-511).

T4 sequence (P54764 20-547): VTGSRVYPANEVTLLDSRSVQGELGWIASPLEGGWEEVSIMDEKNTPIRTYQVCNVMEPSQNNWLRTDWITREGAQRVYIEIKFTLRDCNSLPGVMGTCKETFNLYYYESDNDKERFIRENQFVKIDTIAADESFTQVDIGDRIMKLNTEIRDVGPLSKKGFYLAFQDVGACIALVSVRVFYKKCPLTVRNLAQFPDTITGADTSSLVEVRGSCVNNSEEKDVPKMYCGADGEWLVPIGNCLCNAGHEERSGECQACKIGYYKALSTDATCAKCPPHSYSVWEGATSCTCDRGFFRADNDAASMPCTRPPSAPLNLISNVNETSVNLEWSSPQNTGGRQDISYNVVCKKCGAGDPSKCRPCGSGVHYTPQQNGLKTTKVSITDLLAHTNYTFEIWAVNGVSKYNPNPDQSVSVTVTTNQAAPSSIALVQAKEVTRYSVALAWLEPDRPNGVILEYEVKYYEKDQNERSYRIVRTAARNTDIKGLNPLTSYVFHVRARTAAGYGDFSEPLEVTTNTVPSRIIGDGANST
Chain of SEAP-His (P05187 23-511): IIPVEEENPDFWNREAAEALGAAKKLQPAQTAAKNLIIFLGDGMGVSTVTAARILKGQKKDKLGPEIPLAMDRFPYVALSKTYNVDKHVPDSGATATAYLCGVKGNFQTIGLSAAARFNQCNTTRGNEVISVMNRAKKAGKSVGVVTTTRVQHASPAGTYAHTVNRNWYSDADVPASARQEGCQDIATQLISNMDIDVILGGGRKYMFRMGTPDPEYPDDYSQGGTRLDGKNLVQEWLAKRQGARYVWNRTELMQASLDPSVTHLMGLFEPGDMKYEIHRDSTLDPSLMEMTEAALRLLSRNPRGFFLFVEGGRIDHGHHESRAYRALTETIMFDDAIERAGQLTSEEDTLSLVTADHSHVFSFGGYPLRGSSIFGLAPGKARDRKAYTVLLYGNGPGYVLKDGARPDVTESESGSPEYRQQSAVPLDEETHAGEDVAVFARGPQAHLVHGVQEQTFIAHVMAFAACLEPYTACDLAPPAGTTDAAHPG

B1: humanized antibody No. 96 (antibody, human IgG1, kappa)
heavy: QVQLVQSGSELKKPGASVKVSCKASGYTFTDYSMHWVRQAPGQGLKWMGWINTETGEPTYADDFKGRFVFSLDTSVSTAYLQISSLKAEDTAVYYCARIPLYYYGSRYWYFDVWGQGTTVTVSSASTKGPSVFPLAPSSKSTSGGTAALGCLVKDYFPEPVTVSWNSGALTSGVHTFPAVLQSSGLYSLSSVVTVPSSSLGTQTYICNVNHKPSNTKVDKRVEPKSCDKTHTCPPCPAPPAAAPSVFLFPPKPKDTLMISRTPEVTCVVVDVSHEDPEVQFNWYVDGVEVHNAKTKPREEQFNSTFRVVSVLTVVHQDWLNGKEYKCKVSNKGLPAPIEKTISKTKGQPREPQVYTLPPSREEMTKNQVSLTCLVKGFYPSDIAVEWESNGQPENNYKTTPPMLDSDGSFFLYSKLTVDKSRWQQGNVFSCSVMHEALHNHYTQKSLSLSPG
light: EIVMTQSPATLSVSPGERATLSCRASENIYRNLAWYQQKPGQSPRLLIYAATNLADGIPARFSGSGSGTEYTLTISSLQSEDFAVYYCQHFWGTPWTFGQGTKVEIKRTVAAPSVFIFPPSDEQLKSGTASVVCLLNNFYPREAKVQWKVDNALQSGNSQESVTEQDSKDSTYSLSSTLTLSKADYEKHKVYACEVTHQGLSSPVTKSFNRGEC
notes: human Ig kappa; also called L2-4/HK2
As to B1, the “A450 as % of hEphA4-SEAP-His” value in test [1] worked out at 5.6%; in test [2] it was 5.5%; in test [3], 5.6%; in test [4], 100%; in test [5], 9.8%; in the test with SEAP-His, 5.5%.

For the origin of these results see patent publication US20190077860A1 (EISAI R AND D MANAGEMENT, published 2019).
